Test results: PMC4081090, “Structure of the N-glycosidase MilB in complex with hydroxymethyl CMP reveals its Arg23 specifically recognizes the substrate and controls its entry” (Nucleic Acids Research, 2014)
Where a chain is given by its changes, count along the chain named. Names and notes keep the numbering of the source.

What was measured:
BlsM = molecular target: T1, BlsM (Streptomyces griseochromogenes, UniProt Q841K1); assay: HPLC of released 5hmC, Michaelis-Menten fit; format: biochemical; settings: 50 mM Tris-HCl, pH 7.2, 37 °C, 30 min
T1 construct: N-terminal 6xHis tag (pET28a), E. coli BL21(DE3)
T1 sequence (Q841K1 entry or part of it): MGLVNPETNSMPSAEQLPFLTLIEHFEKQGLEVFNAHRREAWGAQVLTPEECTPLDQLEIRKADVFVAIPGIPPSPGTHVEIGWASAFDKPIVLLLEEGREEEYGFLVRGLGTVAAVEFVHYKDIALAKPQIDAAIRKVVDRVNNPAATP
Excerpt: HPLC of released 5hmC, Michaelis-Menten fit on BlsM

[1] = substrate: Nc1nc(=O)n([C@@H]2O[C@H](COP(=O)(O)O)[C@@H](O)[C@H]2O)cc1CO; assay: HPLC of released 5hmC, Michaelis-Menten fit; format: biochemical, Streptomyces rimofaciens; settings: 50 mM Tris-HCl, pH 7.2, 37 °C, 30 min
Excerpt: HPLC of released 5hmC, Michaelis-Menten fit on MilB

[2] = molecular target: the molecule itself; assay: SEC; size exclusion chromatography of MilB in solution (Figure S1); conditions of this run not given
[3] = substrate: Nc1ccn([C@@H]2O[C@H](COP(=O)(O)O)[C@@H](O)[C@H]2O)c(=O)n1; assay: HPLC of released cytosine, Michaelis-Menten fit; format: biochemical, Streptomyces rimofaciens; settings: 50 mM Tris-HCl, pH 7.2, 37 °C, 30 min
Excerpt: HPLC of released cytosine, Michaelis-Menten fit on MilB

**Q.** With Nc1nc(=O)n([C@@H]2O[C@H](COP(=O)(O)O)[C@@H](O)[C@H]2O)cc1CO [hmCMP, 5-hydroxymethyl cytidine 5′-monophosphate] as the molecule, how does the Km (BlsM) read?
**A.** Its Km is 328 µM.

B1: N-glycosidase MilB, wild type (enzyme, Streptomyces remofaciens ZJU5119, UniProt B4Y381 1-170, looked up)
chain: MTTTPKPRTAPAVGSVFLGGPFRQLVDPRTGVMSSGDQNVFSRLIEHFESRGTTVYNAHRREAWGAEFLSPAEATRLDHDEIKAADVFVAFPGVPASPGTHVEIGWASGMGKPMVLLLERDEDYAFLVTGLESQANVEILRFSGTEEIVERLDGAVARVLGRAGEPTVIG
notes: MilB, N-glycosidase (CMP/hydroxymethyl CMP hydrolase) of the mildiomycin biosynthesis pathway, Streptomyces remofaciens ZJU5119; the full-length protein consists of 170 residues; residues 12-169 are seen in the crystal model; Cloned into pET28a with an N-terminal 6xHis tag; also called WT MilB; full-length MilB; source: E. coli BL21(DE3), purified (Ni-NTA, Superdex200 gel filtration)
**Q.** How did the Km [1] turn out when B1 was run?
**A.** Its Km is 71.55 (11.66) μM.

**Q.** What about the kcat [1] of the same molecule?
**A.** Its kcat is 0.0531 s⁻¹.

**Q.** What about the kcat/Km [1] of the same molecule?
**A.** The kcat/Km was 743 M⁻¹ s⁻¹.

**Q.** And the “stoichiometry N” value [2]?
**A.** Its value is 2.

B2: MilB (Streptomyces rimofaciens; R23M) (protein)
chain: B1 chain with R23M
notes: full-length (170 residues), N-terminal 6xHis tag (pET28a), E. coli BL21(DE3); dimer; crystal model residues 12-169 / 12-170
**Q.** Which Km [1] does the source give for B2 here?
**A.** The Km was 86.63 (10.67) μM.

**Q.** And the kcat [1]?
**A.** Its kcat is 0.0156 s⁻¹.

**Q.** And the kcat/Km [1]?
**A.** The kcat/Km was 180 M⁻¹ s⁻¹.

**Q.** And the Km [3]?
**A.** The Km was 1122.00 (100) μM.

**Q.** What about the kcat [3] of the same molecule?
**A.** The kcat was 0.0305 s⁻¹.

**Q.** And the kcat/Km [3]?
**A.** The kcat/Km was 27.1 M⁻¹ s⁻¹.
